Values of other authors as cited in publication PMC2289845.

Molecular target: KIX KIX (UniProt P45481)
Chain of UniProt P45481 (P45481 586-665): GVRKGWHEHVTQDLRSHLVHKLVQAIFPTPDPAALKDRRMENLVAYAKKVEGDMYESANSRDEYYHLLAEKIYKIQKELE

In the case of pKID KID (from UniProt P15337), the Kd is listed as 1300 nM.
